Assay results as given in publication PMC9506655, “Comparative structural insight into the unidirectional catalysis of ornithine carbamoyltransferases from Psychrobacter sp. PAMC 21119” (PLoS ONE, 2022).
Values belong to the compound of their own block, whether it stands above or below them.

Assays:
[1] = biological target: T1, Ps_aOTC (Psychrobacter sp. PAMC 21119, UniProt A0ACD6BAY5); experiment: label-free thermal shift (Tycho NT.[…], intrinsic fluorescence); assay type: binding; conditions: apo Tm 53.7 ± 0.4 °C; saturating at 20 mM CP; 20 mM Tris-HCl pH 8.0; 15 min incubation at 295 K
T1 construct: full-length argF product, N-terminal His6 (pET-28a) kept; expressed in E. coli BL21(DE3); homotrimer in solution
T1 sequence (A0ACD6BAY5 entry or part of it): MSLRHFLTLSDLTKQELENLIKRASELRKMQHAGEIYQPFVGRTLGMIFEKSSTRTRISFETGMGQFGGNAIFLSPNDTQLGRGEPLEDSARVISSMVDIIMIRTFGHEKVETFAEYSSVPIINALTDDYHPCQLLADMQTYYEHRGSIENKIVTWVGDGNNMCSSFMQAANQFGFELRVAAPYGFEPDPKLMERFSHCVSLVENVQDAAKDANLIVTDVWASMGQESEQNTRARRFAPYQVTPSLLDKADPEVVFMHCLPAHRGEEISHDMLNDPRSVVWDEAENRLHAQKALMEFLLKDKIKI

[2] = biological target: T2, Ps_cOTC (Psychrobacter sp. PAMC 21119, UniProt Z9QBN3KKL3); experiment: as above; assay type: binding; conditions: apo Tm 71.9 ± 0.0 °C; up to 50 mM CP; 20 mM Tris-HCl pH 8.0; 15 min incubation at 295 K
T2 construct: full-length arcB product, N-terminal His6 (pET-28a NdeI) kept; expressed in E. coli BL21(DE3); homotrimer in solution
T2 sequence (Z9QBN3KKL3 1-336): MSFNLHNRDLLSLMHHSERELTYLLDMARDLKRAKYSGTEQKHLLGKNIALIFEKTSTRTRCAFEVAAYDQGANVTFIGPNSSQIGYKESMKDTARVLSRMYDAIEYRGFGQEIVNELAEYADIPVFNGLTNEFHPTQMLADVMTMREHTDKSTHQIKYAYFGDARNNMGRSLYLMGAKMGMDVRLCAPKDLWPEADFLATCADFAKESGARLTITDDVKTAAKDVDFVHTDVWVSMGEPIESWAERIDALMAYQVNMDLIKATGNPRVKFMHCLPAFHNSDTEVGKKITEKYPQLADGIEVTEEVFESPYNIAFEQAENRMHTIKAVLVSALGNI

[3] = biological target: T1, Ps_aOTC; experiment: as above; assay type: binding; conditions: with 5 mM CP (no shift by NVA alone); 20 mM Tris-HCl pH 8.0; 15 min incubation at 295 K
[4] = biological target: T2, Ps_cOTC; experiment: as above; assay type: binding; conditions: with 50 mM CP (no shift by NVA alone); 20 mM Tris-HCl pH 8.0; 15 min incubation at 295 K
[5] = biological target: anabolic ornithine carbamoyltransferase from Psychrobacter sp. PAMC 21119 (Psychrobacter sp. PAMC 21119); experiment: AUC; sedimentation velocity, 20 mM Tris-HCl pH 8.0, 200 mM NaCl, 20°C, 42,000 RPM, SEDFIT
[6] = biological target: anabolic ornithine carbamoyltransferase from Psychrobacter sp. PAMC 21119 (Psychrobacter sp. PAMC 21119); experiment: SEC; Superdex 200 10/300 GL, 20 mM Tris-HCl pH 8.0, NaCl 300, 500 and 1,000 mM, protein 1 mg/mL, column calibrated with standards
[7] = biological target: anabolic ornithine carbamoyltransferase from Psychrobacter sp. PAMC 21119 (Psychrobacter sp. PAMC 21119); experiment: crystal structure; X-ray, molecular replacement; Ps_cOTC at 2.6 Å (0.1 M Tris-HCl pH 8.1, 1.3 M lithium sulfate), Ps_aOTC at 2.2 Å (0.1 M sodium acetate:HCl pH 4.6, 1 M ammonium citrate dibasic)
[8] = biological target: catabolic ornithine carbamoyltransferase from Psychrobacter sp. PAMC 21119 (Psychrobacter sp. PAMC 21119); experiment: AUC; sedimentation velocity, 20 mM Tris-HCl pH 8.0, 200 mM NaCl, 20°C, 42,000 RPM, SEDFIT
[9] = biological target: catabolic ornithine carbamoyltransferase from Psychrobacter sp. PAMC 21119 (Psychrobacter sp. PAMC 21119); experiment: SEC; Superdex 200 10/300 GL, 20 mM Tris-HCl pH 8.0, NaCl 300, 500 and 1,000 mM, protein 1 mg/mL, column calibrated with standards
[10] = biological target: catabolic ornithine carbamoyltransferase from Psychrobacter sp. PAMC 21119 (Psychrobacter sp. PAMC 21119); experiment: crystal structure; X-ray, molecular replacement; Ps_cOTC at 2.6 Å (0.1 M Tris-HCl pH 8.1, 1.3 M lithium sulfate), Ps_aOTC at 2.2 Å (0.1 M sodium acetate:HCl pH 4.6, 1 M ammonium citrate dibasic)

- ΔT [1]: 6.5 °C
- ΔT [2]: 1.3 °C
Compound: NC(=O)OP(=O)(O)O [CP, carbamoyl phosphate]

Compound: CCC[C@H](N)C(=O)O [NVA, l-norvaline]
- thermal shift [3]: following CP binding, NVA can bind to Ps_cOTC and Ps_aOTC
- thermal shift [4]: following CP binding, NVA can bind to Ps_cOTC and Ps_aOTC

- stoichiometry N [5]: 3
- stoichiometry N [6]: 3
- stoichiometry N [7]: 3
Compound: anabolic ornithine carbamoyltransferase from Psychrobacter sp. PAMC 21119 (enzyme)

- stoichiometry N [8]: 3
- stoichiometry N [9]: 3
- stoichiometry N [10]: 3
Compound: catabolic ornithine carbamoyltransferase from Psychrobacter sp. PAMC 21119 (enzyme)
